This test has as its target trastuzumab (human). Description: charge-stabilized self-interaction nanoparticle spectroscopy.

Substance trastuzumab (antibody) showed a CS-SINS score of 0.1.

The record behind these values is paper PMC11757908.
